Biological target: T1, His-COL1A1(972-1206) (human, UniProt P02452 972-1206)
T1 construct: also called COL1 (in the in vitro pull-downs); source: HEK293F, transfected (PEI), purified from the supernatants (Nickel Beads)
Test: pull-down; GST pull-down: 10 µg purified GST fusion protein with GST-beads incubated with His-COL1A1(972-1206) protein 1 h at 4 °C; washed three times with RIPA (1% Triton X-100, 50 mM Tris pH 7.4, 150 mM NaCl, 2 mM EDTA); blot with anti-His antibody
Details: both partners purified

T1 sequence (P02452 972-1206): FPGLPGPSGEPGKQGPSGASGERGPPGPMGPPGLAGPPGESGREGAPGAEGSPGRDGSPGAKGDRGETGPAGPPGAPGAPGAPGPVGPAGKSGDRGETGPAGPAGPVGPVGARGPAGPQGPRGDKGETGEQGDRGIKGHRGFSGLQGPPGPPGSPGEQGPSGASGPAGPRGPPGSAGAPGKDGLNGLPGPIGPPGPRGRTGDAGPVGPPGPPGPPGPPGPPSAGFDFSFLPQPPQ

B1: GST-CD133(20-108) (domain or fragment, human, UniProt O43490 20-108, looked up)
chain: GGQPSSTDAPKAWNYELPATNYETQDSHKAGPIGILFELVHIFLYVVQPRDFPEDTLRKFLQKAYESKIDYDKPETVILGLKIVYYEAG
notes: source: E. coli BL21(DE3), purified (Glutathione-Superflow Resin)
Does B1 bind?
Result: binds

B2: GST-CD133 N-terminal segment (amino acids 43–81) (domain or fragment, human, UniProt O43490 43-81, looked up)
chain: TQDSHKAGPIGILFELVHIFLYVVQPRDFPEDTLRKFLQ
notes: source: E. coli BL21, purified (Glutathione-Superflow Resin)
Does B2 bind?
Result: binds

From publication PMC10797482, “The Interaction between Collagen 1 and High Mannose Type CD133 Up‐Regulates Glutamine Transporter SLC1A5 to Promote the Tumorigenesis of Glioblastoma Stem Cells” (Advanced Science, 2023)
